Results reported in patent US7183387 (Genentech, dated 2007).
Changes are numbered by the printed parent chain.

B1: anti-IgE E27 IgG1 Glu293Ala (antibody)
heavy: not shown
light: DIQLTQSPSSLSASVGDRVTITCRASKPVDGEGDSYLNWYQQKPGKAPKLLIYAASYLESGVPSRFSGSGSGTDFTLTISSLQPEDFATYYCQQSHEDPYTFGQGTKVEIKRTVAAPSVFIFPPSDEQLKSGTASVVCLLNNFYPREAKVQWKVDNALQSGNSQESVTEQDSKDSTYSLSSTLTLSKADYEKHKVYACEVTHQGLSSPVTKSFNRGEC
B2: anti-IgE E27 IgG1 Tyr296Phe (antibody)
heavy: not shown
light: B1 light
B3: E27 IgG1 variant K334(353)W (antibody)
heavy: not shown
light: B1 light
B4: E27 IgG1 variant K334(353)Y (antibody)
heavy: not shown
light: B1 light
B5: E27 IgG1 variant K290(307)E (antibody)
heavy: not shown
light: B1 light
notes: also called IG2 77
B6: E27 IgG1 variant K290(307)R (antibody)
heavy: not shown
light: B1 light
notes: also called IG2 78
B7: E27 IgG1 variant A339(359)T (antibody)
heavy: not shown
light: B1 light
notes: also called IG2 273
B8: E27 IgG1 variant K334(353)H (antibody)
heavy: not shown
light: B1 light
B9: anti-IgE E27 IgG1 variant Val305Ala (antibody)
heavy: not shown
light: B1 light
notes: also called V305(324)A; IG2 40
B10: anti-IgE E27 IgG1 variant Ser267Ala/His268Ala (antibody)
heavy: not shown
light: B1 light
notes: also called S267(280)A H268(281)A; IG2 96
B11: anti-IgE E27 IgG1 variant Thr307Ala (antibody)
heavy: not shown
light: B1 light
notes: also called T307(326)A; IG2 41

Biological target: T1, human FcγRIIIA-Phe158 α subunit extracellular domain-His6-GST fusion (human, UniProt P08637 17-208)
T1 construct: extracellular domain; also called FcγRIIIA-F158; CD16; not shown: glutathione S transferase (GST)
Experiment: hexamer ELISA

T1 sequence (P08637 other isoform, or with tags, fused parts or gaps): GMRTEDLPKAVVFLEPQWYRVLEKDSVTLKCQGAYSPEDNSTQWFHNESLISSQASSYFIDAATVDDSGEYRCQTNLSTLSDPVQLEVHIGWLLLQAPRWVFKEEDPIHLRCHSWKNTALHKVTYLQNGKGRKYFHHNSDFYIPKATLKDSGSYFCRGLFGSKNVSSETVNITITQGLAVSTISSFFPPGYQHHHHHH

Row | reduction in binding against native IgG1 | Binder
1 | 70% | B1
2 | 50% | B2

Biological target: T2, human FcγRIIA-Arg131 α subunit extracellular domain-His6-GST fusion (human, UniProt P12318 34-217)
T2 construct: extracellular domain; also called FcγRIIA-R131; not shown: glutathione S transferase (GST)
T2 sequence: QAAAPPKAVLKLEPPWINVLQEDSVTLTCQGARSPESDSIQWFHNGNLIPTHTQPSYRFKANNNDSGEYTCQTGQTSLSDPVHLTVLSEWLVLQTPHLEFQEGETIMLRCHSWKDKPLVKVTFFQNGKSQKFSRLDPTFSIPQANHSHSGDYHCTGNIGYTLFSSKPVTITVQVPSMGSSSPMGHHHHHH
Experiment: hexamer ELISA

Row | ratio to native IgG1 | Binder
3 | 1.08 ratio | B1
4 | 0.97 ratio | B2

Biological target: T3, human FcγRIIB α subunit extracellular domain-His6-GST fusion (human, UniProt P31994 43-217)
T3 construct: extracellular domain; also called CD32; not shown: glutathione S transferase (GST)
T3 sequence: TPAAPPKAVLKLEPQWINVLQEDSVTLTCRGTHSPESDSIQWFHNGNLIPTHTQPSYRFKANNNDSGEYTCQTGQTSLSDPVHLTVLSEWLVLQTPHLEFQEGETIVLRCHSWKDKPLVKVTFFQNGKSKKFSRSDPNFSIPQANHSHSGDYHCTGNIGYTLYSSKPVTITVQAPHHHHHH
Experiment: hexamer ELISA

Row | ratio to native IgG1 | Binder
5 | 1.07 ratio | B1
6 | 0.86 ratio | B2

Biological target: T1, human FcγRIIIA-Phe158 α subunit …
Experiment: hexamer ELISA
Remark: another data set of the same source

Row | ratio to native IgG1 | Binder
7 | 0.31 ratio | B1
8 | 0.55 ratio | B2

Biological target: T4, human neonatal Fc receptor (FcRn), biotinylated (human, UniProt P55899 24-297; P61769 21-119, biotinylated (biotin-X-NHS))
T4 construct: captured on streptavidin plates
Experiment: FcRn ELISA, pH 6.0;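 further: Streptavidin-captured FcRn plates, IgG variants titrated 2 h at pH 6.0, peroxidase anti-human IgG read at 450 nm, variant over standard concentration at the standard curve mid-point absorbance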
Experimental: FcRn Binding ELISA: For measuring FcRn binding activity of IgG variants, ELISA plates were coated with 2 µg/ml streptavidin (Zymed, South San Francisco) in 50 mM carbonate buffer, pH 9.6, at 4° C. overnight and blocked with PBS-0.5% BSA, pH 7.2 at room temperature for one hour. Biotinylated FcRn (prepared using biotin-X-NHS from Research Organics, Cleveland, Ohio and used at 1–2 µg/ml) in PBS-0.5% BSA, 0.05% polysorbate 20, pH 7.2, was added to the plate and incubated for one hour. Two fold serial dilutions of IgG standard (1.6–100 ng/ml) or variants in PBS-0.5% BSA, 0.05% polysorbate 20, pH 6.0, were added to the plate and incubated for two hours. Bound IgG was detected using peroxidase labeled goat F(ab')_2 anti-human IgG F(ab')_2 in the above pH 6.0 buffer (Jackson ImmunoResearch, West Grove, Pa.) followed by 3,3',5,5'-tetramethyl benzidine (Kirgaard & Perry Laboratories) as the substrate. Plates were washed between steps with PBS-0.05% TWEEN 20® at either pH 7.2 or 6.0. Absorbance was read at 450 nm on a Vmax plate reader (Molecular Devices, Menlo Park, Calif.). Titration curves were fit with a four-parameter nonlinear regression curve-fitting program (KaleidaGraph, Synergy software, Reading, Pa.). Concentrations of IgG variants corresponding to the mid-point absorbance of the titration curve of the standard were calculated and then divided by the concentration of the standard corresponding to the mid-point absorbance of the standard titration curve.

Row | ratio to native IgG1 | Binder
9 | 0.85 ratio | B1
10 | 0.79 ratio | B2

Biological target: T5, human FcγRIA α subunit extracellular domain-His6-GST fusion (human, UniProt P12314 16-292)
T5 construct: extracellular domain; also called GST-FcγRIA; CD64; not shown: glutathione S transferase (GST)
Experiment: FcγRI ELISA and THP-1 cells, averaged

T5 sequence (P12314 other isoform, or with tags, fused parts or gaps): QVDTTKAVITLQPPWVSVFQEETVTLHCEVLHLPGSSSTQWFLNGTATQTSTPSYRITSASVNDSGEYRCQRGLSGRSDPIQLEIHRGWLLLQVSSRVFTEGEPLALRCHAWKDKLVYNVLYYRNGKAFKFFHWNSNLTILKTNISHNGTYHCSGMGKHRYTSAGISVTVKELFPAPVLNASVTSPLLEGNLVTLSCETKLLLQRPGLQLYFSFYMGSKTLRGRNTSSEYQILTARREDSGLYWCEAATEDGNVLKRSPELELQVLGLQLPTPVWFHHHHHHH

Row | ratio to native IgG1 | Binder
11 | 1.11 ratio | B1
12 | 1.03 ratio | B2

Biological target: T6, human FcγRIIA-R131 α subunit extracellular domain-6His-GST fusion (human, UniProt P12318 34-217)
T6 construct: also called FcγRIIA-Arg131; not shown: glutathione S-transferase (GST)
T6 sequence: T2 sequence
Experiment: ELISA, IgG:IgE hexamers on receptor-GST

Row | ratio to native IgG1 | Binder
13 | 0.94 | B3
14 | 1.08 | B4
15 | 1.1 | B5
16 | 1.05 | B6
17 | 1.11 | B7
18 | 1.09 | B8

Biological target: T7, human FcγRIIB α subunit extracellular domain-6His-GST fusion (human, UniProt P31994 43-217)
T7 construct: not shown: glutathione S-transferase (GST)
T7 sequence: T3 sequence
Experiment: ELISA, IgG:IgE hexamers on receptor-GST

Row | ratio to native IgG1 | Binder
19 | 0.91 | B3
20 | 1.05 | B4
21 | 1.2 | B5
22 | 1.15 | B6
23 | 1.23 | B7
24 | 1.07 | B8

Biological target: T8, human FcγRIIIA-F158 α subunit extracellular domain-6His-GST fusion (human, UniProt P08637 17-208)
T8 construct: also called FcγRIIIA-Phe158; not shown: glutathione S-transferase (GST)
Experiment: ELISA, IgG:IgE hexamers on receptor-GST

T8 sequence (P08637 other isoform, or with tags, fused parts or gaps, form in doubt): as the sequence (P08637 other isoform, or with tags, fused parts or gaps) above

Row | ratio to native IgG1 | Binder
25 | 1.07 | B3
26 | 1.31 | B4
27 | 1.3 | B5
28 | 1.08 | B6
29 | 1.42 | B7
30 | 1.26 | B8

Biological target: T9, human FcγRIIA-H131 α subunit extracellular domain-His6-GST fusion protein (human, UniProt P12318 34-217)
T9 construct: also called FcγRIIA-His131; not shown: glutathione S-transferase (GST)
T9 sequence: T2 sequence with R134H
Experiment: ELISA, IgG:IgE hexamer on coated FcγRIIA-H131-GST

Row | ratio of binding of the variant to that of native IgG1 | Binder
31 | 1.06 ratio (variant/native IgG1) | B9
32 | 1.02 ratio (variant/native IgG1) | B10
33 | 1.18 ratio (variant/native IgG1) | B11

Biological target: T10, human FcγRI (FcγRIA) α subunit extracellular domain-His6-GST fusion (human, UniProt P12314 16-292)
T10 construct: Reported FcγRI values are the average of the plate ELISA on this fusion and of a flow cytometry assay on THP-1 cells; also called GST-FcγRIA; not shown: glutathione S-transferase (GST)
Experiment: monomeric IgG; ELISA on receptor-GST and THP-1 cells, averaged

T10 sequence (P12314 other isoform, or with tags, fused parts or gaps, form in doubt): as the sequence (P12314 other isoform, or with tags, fused parts or gaps) above

Row | ratio to native IgG1 | Binder
34 | 1.16 | B3
35 | 1.15 | B4
36 | 1.14 | B5
37 | 1.25 | B6
38 | 1.23 | B7
39 | 1.11 | B8

Biological target: T9, human FcγRIIA-H131 α subunit …
Experiment: ELISA; binding ratio on FcγRIIA-H131 divided by that on FcγRIIA-R131

Row | H131/R131 | Binder
40 | 1.08 ratio (H131 value/R131 value) | B9
41 | 0.65 ratio (H131 value/R131 value) | B10
42 | 0.94 ratio (H131 value/R131 value) | B11

Biological target: T11, human FcγRIIA-R131 α subunit extracellular domain-His6-GST fusion protein (human, UniProt P12318 34-217)
T11 construct: ECD-6His-GST fusion made in 293 cells, coated on the plate; also called FcγRIIA-Arg131; not shown: glutathione S-transferase (GST)
T11 sequence: T2 sequence
Experiment: ELISA, IgG:IgE hexamer on coated FcγRIIA-R131-GST; value carried over from Table 6, 7 or 8

Row | ratio of binding of the variant to that of native IgG1 | Binder
43 | 1.12 ratio (variant/native IgG1) | B9
44 | 1.41 ratio (variant/native IgG1) | B10
45 | 1.07 ratio (variant/native IgG1) | B11

Biological target: T11, human FcγRIIA-R131 α subunit …
Experiment: ELISA, IgG:IgE hexamer on coated FcγRIIA-R131-GST; separate assays run together with the H131 assays

Row | ratio of binding of the variant to that of native IgG1 | Binder
46 | 1 ratio (variant/native IgG1) | B9
47 | 1.57 ratio (variant/native IgG1) | B10
48 | 1.28 ratio (variant/native IgG1) | B11
